# Experimental data from the DeepSol protein solubility set.
# Test: soluble on expression in E. coli; label from the status in PepcDB or PDB records
row,Sequence,soluble on expression in E. coli
1,MGHHHHHHSHMIRDLEYYDSPILRKVAAPVTEITDELRQLVLDMSETMAFYKGVGLAAPQVGQSISLFIMGVERELEDGELVFCDFPRVFINPVITQKSEQLVYGNEGCLSIPGLRGEVARPDKITVSAKNLDGQQFSLALEGFLASIVMHETDHLHGVLYIDRMSDKDKTKQFKNNLEKIRRKYSILRGL,soluble
2,MGHHHHHHSHMKALLSIEMDMQVPFHDVDSMGITWHGNYLRYFEVARCKLLDELGYNYRQMRASNYAWPIIDVQIKYVKPSTFEQHITVRAELVEWENRLKINYQIRDTATGERITKGYTIQAAVDMTSQEMCFVTPEVFRSKIAPLLAKVDNE,soluble
3,MGHHHHHHSHMKKEHVLHCQFSAWYPFFRGVTIKSVILPLPQNVKDYLLDDGTLVVSGRDDPPTHSQPDSDDEAEEIQWSDDENTATLTAPEFPEFATKVQEPINSLGGSVFPKLNWSAPRDAYWIAMNSSLKCKTLSDIFLLFKSSDFITRDFTQPFIHCTDDSPDPCIEYELVLRKWCELIPGAEFRCFVKENKLIGISQRDYTQYYDHISKQKEEIRRCIQDFFKKHIQYKFLDEDFVFDIYRDSRGKVWLIDFNPFGEVTDSLLFTWEELISENNLNGDFSEVDAQEQDSPAFRCTNSEVTVQPSPYLSYRLPKDFVDLSTGRDAHKLIDFLKLKRNQQEDD,not soluble
4,MGHHHHHHSHMKKLICISLYEDLSMTTYDLSKVDNAELIGIVENASEGTLFVFTCDRPNGSSVIMCPGGGFLKTNLENEGIDFAEWFTKLGITYIVFKYRMPHGNPDVPEQDTRLALKVVREKFPEFCDKLGVMGASIGGYLATFSATLLPDDEKPDFQILMYPVVSVDDRLTHFPCRERMFGHSYSPDKMEQYSPIEHITSGTPAAFIVAAADDAVVSPLNGIMYAARLQKADIPISLHIYPAGGHGFGYNDSFVYKQEWLQELGEWLAKL,soluble
5,MGHHHHHHSHMKQVAVISGKGGTGKTTFSATIHALEGGVVADCDVDAPNLHILLKPQILKAEDFIASKKARIMPEKCSSCGLCYDLCRFGAVVAEDGYYVDEKKCEGCAFCFNVCPERAIEMENVKTGDLYVSKTEWGYFVHARLKPGEENTGRLVTEVKNRAKEIAEESNAEFLIVDSAPGVGCPVMASLTGVDAAIIVTEPTVSGLSDMLRILELCEHFRIRPFVVVNKFDLNVNIASEIESYCSENGVEFAGRVPFDKAIPEQIANLNFPFSGKAADKMVEIWKKLRE,not soluble
6,MGHHHHHHSHMLSPNPLNSRAVEDISSSRTNPYSYAMSTEEARFLTYHMWPLTFLSPSELARAGFYYIGPGDRVACFACGGKLSNWEPKDDAMSEHRRHFPNCPFLENSLETLRFSISNLSMQTHAARMRTFMYW,not soluble
7,MGHHHHHHSHMLSVHTDMASVTKAMAAPESGLEVRDRMWLKITIPNAFLGSDVVDWLYHHVEGFPERREARKYASGLLKAGLIRHTVNKITFSEQCYYVFGDLSGGCESYLVNLSLNDNDGSSGASDQDTLAPLPGATPWPLLPTF,soluble
8,MGHHHHHHSHMMPAERRLPLSFVLDVLEGRAQHPGVLYVQKQCSNLPSELPQLLPDLESHVPWASEALGKMPDAVNFWLGEAAAVTSLHKDHYENLYCVVSGEKHFLFHPPSDRPFIPYELYTPGTYQPSDRPFIPYELYTPATYQLTEEGTFKVVDEEAMEKVPWIPLDPLAPDLARYPSYSQAQALRCMVRAGEMLYLPALWFHHVQQSQGCIAVNFWYDMEYDLKYSYFQLLDSLTKASGLD,soluble
9,MGHHHHHHSHMNKDLLRRVLVLMNSKHTFLALCALRFMRRIIGLKDEFYNRYITKGNLFEPVINALLDNGTRYNLLNSAVIELFEFIRVEDIKSLTAHIVENFYKALESIEYVQTFKGLKTKYEQEKDRQNQKLNSVPSILRSNRFRRDAKALEEDEEMWFNEDEEEEGKAVVAPVEKPKPEDDFPDNYEKFMETKKAKESEDKENLPKRTSPGGFKFTFSHSASAANGTNSKSVVAQIPPATSNGSSSKTTNLPTSVTATKGSLVGLVDYPDDEEEDEEEESSPRKRPRLGS,not soluble
10,MGHHHHHHSHMPMYQVKPYHGGGAPLRVELPTCMYRLPNVHGRSYGPAPGAGHVQEESNLSLQALESRQDDILKRLYELKAAVDGLSKMIQTPDADLDVTNIIQADEPTTLTTNALDLNSVLGKDYGALKDIVINANPGSPPLSLLVLHRLLCEHFRVLSTVHTHSSVKSVPENLLKCFGEQNKKQPRQDYQLGFTLIWKNVPKTQMKFSIQTMCPIEGEGNIARFLFSLFGQKHNAVNATLIDSWVDIAIFQLKEGSSKEKAAVFRSMNSALGKSPWLAGNELTVADVVLWSVLQQIGGCSVTVPANVQRWMRSCENLAPFNTALKLLK,not soluble
11,MGHHHHHHSHMPTDNDLKAAILELLRDLDVLLVAHFYQKDEIVELAHYTGDSLELAKIASQSDKNLIVFCGVHFMGESVKALAFDKQVIMPKLSCCSMARMIDSHYYDRSVHLLKECGVKEFYPITYINSNAEVKAKVAKDDGVVCTSRNASKIFNHALKQNKKIFFLPDKCLGENLALENGLKSAILGANSQEEIKNADVVCYNGFCSVHQLFKLEDIEFYRQKYPDILIAVHPECEPSVVSNADFSGSTSQIIEFVEKLSPNQKVAIGTESHLVNRLKAKRHHQNTFILSSTLALCPTMNETTLKDLFEVLKAYKNHRAYNTIELKDEVARLAKLALTKMMELS,not soluble
12,MGHHHHHHSHMRIVMKFGGVSVKDGENIYHCANLVKKFSEGNEVVVVVSAMQGVTDALLKAAHRCCSEPSAGFIKMFIADMMKRHYEAIEYAVRNDEIKAKVIAAVERLLDELEKVLLGISYLGELTRRSEDYIVSFGERLSAPIFSAALLSLGVDSVALTGGDAGIITDRNFGRAKPLPGVYTTIRNRLEPLLTIKKTIPVVTGFIGATDDGSITTLGRGGSDYTATILAAALDADEVWLWKEVDGIMTCDPKYVPNARVIPEISYQEAMELSHFGAKILHPRALEPVMRKNIPVRIKN,not soluble
13,MGHHHHHHSHMRKLVIPKYYGRPSIGLALFGCTNRPFYHVCVFPDRALGRRYEGNILEQVGTFDPLPNQKNEKLVALNFGRLKYWIGERNAHISVPVLELLGERRNCLSGLFPIHPKSFIRAKDNRALIADQQLKVAAEAAEAEKVAQEQASTGAAATSHPQ,soluble
14,MGHHHHHHSHMSSKHDYTNPPWNAKVPVQRAMQWMPISQKAGAAWGVDPQLITAIIAIESGGNPNAVSKSNAIGLMQLKASTSGRDVYRRMGWSGEPTTSELKNPERNISMGAAYLNILETGPLAGIEDPKVLQYALVVSYANGAGALLRTFSSDRKKAISKINDLDADEFLEHVARNHPAPQAPRYIYKLEQALDAM,soluble
15,MGHHHHHHSHMVLLHVKRGDESQFLLQAPGSTELEELTVQVARVYNGRLKVQRLCSEMEELAEHGIFLPPNMQGLTDDQIEELKLKDEWGEKCVPSGGAVFKKDDIGRRNGQAPNEKMKQVLKKTIEEAKAIISKKQVEAGVCVTMEMVKDALDQLRGAVMIVYPMGLPPYDPIRMEFENKEDLSGTQAGLNVIKEAEAQLWWAAKELRRTKKLSDYVGKNEKTKIIAKIQQRGQGAPAREPIISSEEQKQLMLYYHRRQEELKRLEENDDDAYLNSPWADNTALKRHFHGVKDIKWRPR,not soluble
16,MGHHHHHHSHMYKRCKRGQDKCMMRPLSNPLTEAYNVQNLYQCLNCDDYHLCNGSLNCDPLVDREGIVCTVTGKYIQCNVRESPMCGAACLDVDIHPEDNTDCILRALFGDIVDIINKLDDIAEIKDKILAGDSLNEHIKKKIECTFPMCANIINCNSQGYSILCSMFVHIIMSIYANKTIYGHMLFKCTRNKKYDTIAKKIREKWMYLE,not soluble
17,MGHHHHHHSHNSSSCPEIQGFLHVKELGKKSWKKLYVCLRRSGLYCSTKGTSKEPRHLQLLADLEDSNIFSLIAGRKQYNAPTDHGLCIKPNKVRNETKELRLLCAEDEQTRTCWMTAFRLLKYGMLLYQNYRIPQQRKALLSPFSTPVRSVSENSLVAMDFSGQTGRVIENPAEAQSAALEEGHAWRKRSTRMNILGSQSPLHPSTLSTVIHRTQ,not soluble
18,MGHHHHHHSHQADEGQARKSQLQRRFKEFLRQYRVGTDRTGFTFKYRDELKRHYNLGEYWIEVEMEDLASFDEDLADYLYKQPAEHLQLLEEAAKEVADEVTRPRPSGEEVLQDIQVMLKSDASPSSIRSLKSDMMSHLVKIPGIIIAASAVRAKATRISIQCRSCRNTLTNIAMRPGLEGYALPRKCNTDQAGRPKCPLDPYFIMPDKCKCVDFQTLKLQELPDAVPHGEMPRHMQLYCDRYLCDKVVPGNRVTIMGIYSIKKFGLTTSRGRDRVGVGIRSSYIRVLGIQVDTDGSGR,not soluble
19,MGHHHHHHSHQKGRYTELVEEKYKLFGELYKTFTKGGLICCSIESPNQEEQEVETDWGLLKGHTYTMTDIRKIRLGERLVEVFSAEKVYMVRLRNPLGRQEWSGPWSEISEEWQQLTASDRKNLGLVMSDDGEFWMSLEDFCRNFHKLNVCRNVNNPIFGR,not soluble
20,MGHHHHHHSHREMVLQFLAFSRVAQDCRGTSWPKTVYFTFQFYRFPPATTPRLQLVQLDEAGQPSSGALTHILVPVSRDGTFDAGSPGFQLRYMVGPGFLKPGERRCFARYLAVQTLQIDVWDGDSLLLIGSAAVQMKETSHIFSVSQ,not soluble
21,MGHHHHHHSHSAAKGTGITRKKTFKEVANAVKISASLMGTVMAKRVKATILYGSETGRAQSYAQQLGRLFRKAFDPRVLCMDEYDVVSLEHETLVLVVTSTFGNGDPPENGESFAAALMEMSGPYN,not soluble
22,MGHHHHHHSHSKEITVRGHNCPKPVLNFYEANFPANVMDVIARQNFTEPTAIQAQGWPVALSGLDMVGVAQTGSGKTLSYLLPAIVHINHQPFLERGDGPICLVLAPTRELAQQVQQVAAEYCRACRLKSTCIYGGAPKGPQIRDLERGVEICIATPGRLIDFLECGKTNLRRTTYLVLDEADRMLDMGFEPQIRKIVDQIRPDRQTLMWSATWPKEVRQLAEDFLKDYIHINIGALELSANHNILQIVDVCHDVEKDEKLIRLMEEIMSEKENKTIVFVETKRRCDELTRKMRRDGWPAMGIHGDKSQQERDWVLNEFKHGKAPILIATDVASRGLDVEDVKFVINYDYPNSSEDYIHRIGRTARSTKTGTAYTFFTPNNIKQVSDLISVLR,not soluble
23,MGHHKAMPYADVAAFIIELRKREAVAATALEFTILTAARSGETLGAKWHEIDWKDKIWTVPAERMKAAREHRVPLSSRTITILKKLAEFGSDENSFVFPGQKPGKPLSVMAMDMVLRRMEVDVTVHGFRSSFRDWCGEVSNFPRDVAEAALAHLEHHHHHH,soluble
24,MGIFSRFADIVNSNISALLDKAEDPEKMIRLIIQEMEDTLVEVRTNSAKAIADKKELARKVEMLEEQIGEWGQKASLALVKEREDLARAALIEKQKLEQVVKGLHTEQTLVEETINKLTGEIGKLENKIAETRAKQQALAIRNQTASNRRDVQKHLHTSRTNEAMAKFDQYSRKIDEMEAEADLYAQTGNAKSLEQEFAELQAQDEIEKELAKLKEQMSSQDKLEHHHHHH,soluble
